Assay results from patent publication US20050158298A1.

Tests used:
[1] = target: gliadin 33mer …; assay: cell-based or functional assay
[2] = tested on: gliadin 33mer LQLQPFPQPQLPYPQPQLPYPQPQLPYPQPQPF
[3] = target: T1, gliadin 33mer LQLQPFPQPQLPYPQPQLPYPQPQLPYPQPQPF
T1 chain: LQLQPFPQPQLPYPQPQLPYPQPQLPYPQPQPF

[4] = target: T2, gliadin 14mer PQPQLPYPQPQLPY
T2 chain: PQPQLPYPQPQLPY

Molecule: Pronase
- digestion of the peptide over 20 h, E/S=1/25 [1]: < 40%

Molecule: Chymotrypsin
- digestion of the peptide [2]: Chymotrypsin alone or supplemented with ruLAP or DPPIV is not able to breakdown the peptide

B1: microsomal leucine aminopeptidase from porcine kidney (Sigma) (protein)
chain: KPWNRYRLPTTLLPDSYNVTLRPYLTPNADGLYIFKGKSIVRLLCQEPTDVIIIHSKKLNYTTQGHMVVLRGVGDSQVPEIDRTELVELTEYLVVHLKGSLQPGHMYEMESEFQGELADDLAGFYRSEYMEGNVKKVLATTQMQSTDARKSFPCFDEPAMKATFNITLIHPNNLTALSNMPPKGSSTPLAEDPNWSVTEFETTPVMSTYLLAYIVSEFQSVNETAQNGVLIRIWARPNAIAEGHGMYALNVTGPILNFFANHYNTSYPLPKSDQIALPDFNAGAMENWGLVTYRENALLFDPQSSSISNKERVVTVIAHELAHQWFGNLVTLAWWNDLWLNEGFASYVEYLGADHAEPTWNLKDLIVPGDVYRVMAVDALASSHPLTTPAEEVNTPAQISEMFDSISYSKGASVIRMLSNFLTEDLFKEGLASYLHAFAYQNTTYLDLWEHLQKAVDAQTSIRLPDTVRAIMDRWTLQMGFPVITVDTKTGNISQKHFLLDSESNVTRSSAFDYLWIVPISSIKNGVMQDHYWLRDVSQAQNDLFKTASDDWVLLNVNVTGYFQVNYDEDNWRMIQHQLQTNLSVIPVINRAQVIYDSFNLATAHMVPVTLALDNTLFLNGEKEYMPWQAALSSLSYFSLMFDRSEVYGPMKKYLRKQVEPLFQHFETLTKNWTERPENLMDQYSEINAISTACSNGLPQCENLAKTLFDQWMSDPENNPIHPNLRSTIYCNAIAQGGQDQWDFAWGQLQQAQLVNEADKLRSALACSNEVWLLNRYLGYTLNPDLIRKQDATSTINSIASNVIGQPLAWDFVQSNWKKLFQDYGGGSFSFSNLIQGVTRRFSSEFELQQLEQFKKNNMDVGFGSGTRALEQALEKTKANIKWVKENKEVVLNWFIEHS
- digestion of the peptide, RP-HPLC and ESI-MS [3]: results only in a partial deletion of N-terminal Leu and C-terminal Phe (due to a carboxypeptidasic contaminant)

B2: recombinant ruLAP2 produced in P. pastoris (protein)
chain: RLVGQEPFGWPFKPMVTQDDLQNKIKLKDIMAGVEKLQSFSDAHPEKNRVFGGNGHKDTVEWIYNEIKATGYYDVKKQEQVHLWSHAEAALNANGKDLKASAMSYSPPASKIMAELVVAKNNGCNATDYPANTQGKIVLVERGVCSFGEKSAQAGDAKAAGAIVYNNVPGSLAGTLGGLDKRHVPTAGLSQEDGKNLATLVASGKIDVTMNVISLFENRTTWNVIAETKGGDHNNVIMLGAHSDSVDAGPGINDNGSGSIGIMTVAKALTNFKLNNAVRFAWWTAEEFGLLGSTFYVNSLDDRELHKVKLYLNFDMIGSPNFANQIYDGDGSAYNMTGPAGSAEIEYLFEKFFDDQGIPHQPTAFTGRSDYSAFIKRNVPAGGLFTGAEVVKTPEQVKLFGGEAGVAYDKNYHRKGDTVANINKGAIFLNTRAIAYAIAEYARSLKGFPTRPKTGKRDVNPQYSKMPGGGCGHHTVFM
- removal of the N-terminal residue; mass loss by ESI-MS (Ala-proNPY): the N-terminal alanine was almost totally removed (molecular mass loss of 71 amu) from proNPY
- removal of N-terminal residues; mass loss by ESI-MS (Gly-Ser-proNPY): cleavage of the two N-terminal residues Gly-Ser with a theoretical loss of 144.1 amu (found 144.2)
- digestion of the peptide, 37 C, 4 h, RP-HPLC and ESI-MS [4]: the 14mer is not digested with ruLAP2 within 4 h
- degradation of the peptide within 4 h, RP-HPLC [3]: partial degradation (less than 50%) of the peptide within 4 h

B3: cytosolic leucine aminopeptidase from porcine kidney (Sigma) (protein)
chain: TKGLVLGIYSKEKEDDAPQFTSAGENFDKLVSGKLREILNISGPPLKAGKTRTFYGLHEDFSSVVVVGLGKKGAGVDDQENWHEGKENIRAAVAAGCRQIQDLEIPSVEVDPCGDAQAAAEGAVLGLYEYDELKQKKKVVVSAKLHGSGDQEAWQRGVLFASGQNLARHLMETPANEMTPTRFAEVIEKNLKSASSKTDVHIRPKSWIEEQEMGSFLSVAKGSEEPPVFLEIHYKGSPDASDPPLVFVGKGITFDSGGISIKASANMDLMRADMGGAATICSTIVSAAKLDLPINLVGLAPLCENMPSGKANKPGDVVRAKNGKTIQVDNTDAEGRLILADALCYAHTFNPKVIINAATLTGAMDIALGSGATGVFTNSSWLWNKLFEASIETGDRVWRMPLFEHYTKQIVDCQLADVNNIGKYRSAGACTAAAFLKEFVTHPKWAHLDIAGVMTNKDEVPYLRKGMAGRPTRTLIEFLLRFSQDSA
- digestion of the peptide, RP-HPLC [3]: totally inactive towards the 33mer
